Test results from article PMC3044595.

Molecular target: BclA N-terminal 35 amino acids fused to eGFP (Bacillus anthracis) (UniProt Q81JD7)
Assay: FRET or BRET

BxpB-mCherry fusion (from UniProt S5W424 1-167) (natural protein)
fold decrease of the eGFP signal (FRET), against BclA NTD-eGFP alone: 2.1 fold
percent of FRET positive spores: 14.8%
